The text below walks through data of US20070202098A1.

In one assay the target is extracellular region of human F158 FcγRIIIa, GST-tagged (human) (UniProt P08637). In words: SPR. On the technique in general: SPR reads the build-up and loss of mass on a sensor chip optically.
extracellular region of human F158 FcγRIIIa, GST-tagged (human), sequence (P08637 17-208): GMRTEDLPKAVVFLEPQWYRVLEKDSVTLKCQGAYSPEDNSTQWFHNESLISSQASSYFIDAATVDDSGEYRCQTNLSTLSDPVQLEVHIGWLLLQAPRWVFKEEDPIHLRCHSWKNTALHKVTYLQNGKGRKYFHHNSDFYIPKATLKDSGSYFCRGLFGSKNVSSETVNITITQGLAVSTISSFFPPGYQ
The substance “alemtuzumab Fc variant 30 V264I/I332E (antibody)” registered a Fold (Kd, over WT) of 14 fold and a Kd of 52 nM.

In another assay the target is His-tagged V158 FcγRIIIa (human) (UniProt P08637). In words: SPR.
His-tagged V158 FcγRIIIa (human), sequence (P08637 17-208 F176V): as the sequence (P08637 17-208) above, with F160V counted along it
The substance “alemtuzumab Fc variant 30 V264I/I332E (antibody)” yielded a Fold (Kd, over WT) of 4 fold.

The target of another assay is FcγRIIIa on human PBMC effector cells (heterozygous V158/F158 or allotype not stated) (human) (UniProt P08637). Put plainly: cell-based or functional assay.
FcγRIIIa on human PBMC effector cells (heterozygous V158/F158 or allotype not stated) (human), sequence (P08637 17-254): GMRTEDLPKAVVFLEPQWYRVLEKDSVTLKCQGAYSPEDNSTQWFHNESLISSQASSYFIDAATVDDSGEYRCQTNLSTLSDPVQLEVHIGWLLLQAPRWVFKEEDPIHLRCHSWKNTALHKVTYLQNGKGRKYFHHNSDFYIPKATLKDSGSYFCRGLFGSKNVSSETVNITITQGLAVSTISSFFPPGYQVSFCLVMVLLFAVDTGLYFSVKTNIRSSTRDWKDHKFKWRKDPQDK
With “alemtuzumab Fc variant 30 V264I/I332E (antibody)”, the ADCC EC50, DoHH-2 targets, human PBMCs stood at 4 ng/mL; the ADCC Fold Improvement Over WT worked out at 2.5 fold; the ADCC log(EC50), DoHH-2 targets, human PBMCs is 0.6 log(ng/ml). On the same counts, the results for “alemtuzumab Fc variant 90 S239D/I332E (antibody)” are 3 ng/mL, 3.3 fold and 0.49 log(ng/ml).

Another assay deals with His-tagged V158 FcγRIIIa (human) (UniProt P08637). Put plainly: SPR, receptor immobilized, antibody flowed.
Regarding “alemtuzumab Fc variant 3 V264I (antibody)”, the equilibrium dissociation constant (Kd) turned out to be 64 nM.

On to “alemtuzumab Fc variant 22 I332E (antibody)”, for which the dissociation constant Kd was found to be 31 nM. “alemtuzumab Fc variant 30 V264I/I332E (antibody)” had an equilibrium dissociation constant (Kd) of 17 nM. Turning to “alemtuzumab Fc variant 35 S298A (antibody)”, the equilibrium dissociation constant (Kd) was determined as 52 nM. On the same count and under the same terms, under “alemtuzumab Fc variant 37 S298A/E333A/K334A (antibody)” stands 39 nM.

The next assay concerns the target extracellular region of human F158 FcγRIIIa, GST-tagged (human) (UniProt P08637). In words: AlphaScreen competition. Background: Alpha assays give light when donor and acceptor beads are brought close together.
“alemtuzumab Fc variant 30 V264I/I332E (antibody)” registered a Fold (IC50, over WT) of 15.6 fold and a half-inhibitory concentration (IC50) of 1.1 nM.

In a further assay the target is extracellular region of human V158 FcγRIIIa fused with glutathione S-Transferase (GST) (human) (UniProt P08637). Put plainly: AlphaScreen competition.
extracellular region of human V158 FcγRIIIa fused with glutathione S-Transferase (GST) (human), sequence (P08637 17-208 F176V): as the sequence (P08637 17-208) above, with F160V counted along it
“alemtuzumab Fc variant 30 V264I/I332E (antibody)”: the FcγRIIIa Fold stood at 12.5 fold; the Fold (IC50, over WT) was found to be 12.8 fold; the half-inhibitory concentration (IC50) is 0.5 nM. “alemtuzumab Fc variant 90 S239D/I332E (antibody)” displayed a FcγRIIIa Fold of 56.1 fold. With “trastuzumab Fc variant 219 S239D/I332E/A330I (antibody)”, the FcγRIIIa Fold was determined as 59.1 fold. On to “trastuzumab Fc variant 221 P230A (antibody)”, for which the FcγRIIIa Fold stood at 1.09 fold. For the substance “trastuzumab Fc variant 222 E233D (antibody)”, the FcγRIIIa Fold stood at 0.85 fold. On to “trastuzumab Fc variant 223 P230A/E233D (antibody)”, for which the FcγRIIIa Fold amounted to 0.92 fold. With “trastuzumab Fc variant 224 P230A/E233D/I332E (antibody)”, the FcγRIIIa Fold turned out to be 1.87 fold.

“trastuzumab Fc variant 238 E272Y (antibody)”: the FcγRIIIa Fold came out at 8.7 fold.

On to “trastuzumab Fc variant 239 V273I (antibody)”, for which the FcγRIIIa Fold was 0.79 fold.

The substance “trastuzumab Fc variant 240 K274T (antibody)” yielded a FcγRIIIa Fold of 1.41 fold. For “trastuzumab Fc variant 241 K274E (antibody)”, the FcγRIIIa Fold came to 6.11 fold.

On to “trastuzumab Fc variant 242 K274R (antibody)”, for which the FcγRIIIa Fold was 1.41 fold. Same read-out and setting: under “trastuzumab Fc variant 243 K274L (antibody)” stands 1.09 fold. On the same count and under the same terms, under “trastuzumab Fc variant 244 K274Y (antibody)” stands 1.06 fold; under “trastuzumab Fc variant 245 F275W (antibody)”, 1.11 fold. In turn, “trastuzumab Fc variant 246 N276S (antibody)” showed a FcγRIIIa Fold of 0.41 fold. In turn, “trastuzumab Fc variant 247 N276E (antibody)” came in with a FcγRIIIa Fold of 0.87 fold.

“trastuzumab Fc variant 248 N276R (antibody)” showed a FcγRIIIa Fold of 0.66 fold. Same read-out and setting: under “trastuzumab Fc variant 250 N276Y (antibody)” stands 0.56 fold. The same measure, in the same setting: under “trastuzumab Fc variant 251 Y278T (antibody)” stands 1.87 fold; under “trastuzumab Fc variant 252 Y278E (antibody)”, 0.9 fold; under “trastuzumab Fc variant 254 Y278W (antibody)”, 0.41 fold. Substance “trastuzumab Fc variant 255 E283R (antibody)” registered a FcγRIIIa Fold of 0.67 fold. Substance “trastuzumab Fc variant 256 V302I (antibody)” had a FcγRIIIa Fold of 1.01 fold. Consider “trastuzumab Fc variant 257 E318R (antibody)”, for which the FcγRIIIa Fold was 1.06 fold. In turn, “trastuzumab Fc variant 263 V323I (antibody)” yielded a FcγRIIIa Fold of 0.83 fold. “trastuzumab Fc variant 266 S324R (antibody)” had a FcγRIIIa Fold of 0.71 fold. Still for that read-out and setting: under “trastuzumab Fc variant 267 S324I (antibody)” stands 1.15 fold; under “trastuzumab Fc variant 268 S324V (antibody)”, 1.17 fold.

In the case of “trastuzumab Fc variant 270 S324Y (antibody)”, the FcγRIIIa Fold is 0.98 fold. Same read-out and setting: under “trastuzumab Fc variant 272 K326I (antibody)” stands 1.43 fold; under “trastuzumab Fc variant 273 K326T (antibody)”, 1.88 fold.

For “trastuzumab Fc variant 281 E333T (antibody)”, the FcγRIIIa Fold was 0.78 fold. “trastuzumab Fc variant 282 E333H (antibody)” gave a FcγRIIIa Fold of 0.75 fold. The same measure, in the same setting: under “trastuzumab Fc variant 288 T335D (antibody)” stands 2.79 fold. Same read-out and setting: under “trastuzumab Fc variant 289 T335R (antibody)” stands 2.58 fold; under “trastuzumab Fc variant 290 T335Y (antibody)”, 1.56 fold. Still for that read-out and setting: under “trastuzumab Fc variant 291 L234I/L235D (antibody)” stands 0.07 fold. Substance “trastuzumab Fc variant 292 V240I/V266I (antibody)” displayed a FcγRIIIa Fold of 1.72 fold. The substance “trastuzumab Fc variant 293 S239D/A330Y/I332E/L234I (antibody)” returned a FcγRIIIa Fold of 22.4 fold. As for “trastuzumab Fc variant 294 S239D/A330Y/I332E/L235D (antibody)”, the FcγRIIIa Fold worked out at 7.04 fold. “trastuzumab Fc variant 295 S239D/A330Y/I332E/V240I (antibody)” gave a FcγRIIIa Fold of 28 fold. On the same count and under the same terms, under “trastuzumab Fc variant 296 S239D/A330Y/I332E/V264T (antibody)” stands 17.7 fold; under “trastuzumab Fc variant 298 S239D/A330Y/I332E/K326E (antibody)”, 64.1 fold.

For orientation: Kd means the equilibrium constant for the complex coming apart. Broadly, the IC50 is the concentration needed to halve the response being measured. Higher therefore signals a need for much substance.
